From a protein production outcome set (Wang et al. 2014) come the findings set out here.

This data set can be described thus: label from the status in PepcDB records.

Consider “MRYSLFKNYLPKEEVPEIRKELIKLALPAMGENVLQMLFGMADTAFLGHYSWKAMSGVGLSNQVFWVVQVVLIAASMGATVTIANAIGAGNRKAVRSLAWNSVFLAIFTGVILTALTPLSDVLINIFPNLEGEIESSAKEYLKVILSGSMGFSIMAVFSAMLRGAGDTRTPMIVTGLTNFLNIFLDYAMIFGKFGFPEMGVRGAAVATILSRFVGAGILTYVIFKREEFQLRKGLVPPKWSSQKEILRVGFPTAIENFVFSTGVLMFANILLIAGAEAYAGHRIGINVESLSFMPAFGISVAITTLVGRYNGMGNKEHVLGVIRQGWILSLLFQVTVGIIIFLFPEPLIRIFTSDPQIIEISKLPVKIIGLFQFFLAIDSTMNGALRGTGNTLPPMIITFISIWTARLPVAFVMVKYFQLGLLGAWIGMIADIIFRSTLKLLFFLSGKWEKRAVLTRERVKELG”, for which the protein production entry is reported as “failed”. The entry for “MRYVVGHKNPDTDSIASAIVLAYFLDCYPARLGDINPETEFVLRKFGVMEPELIESAKGKEIILVDHSEKSQSFDDLEEGKLIAIIDHHKVGLTTTEPILYYAKPVGSTATVIAELYFKDAIDLIGGKKKELKPDLAGLLLSAIISDTVLFKSPTTTDLDKEMAKKLAEIAGISNIEEFGMEILKAKSVVGKLKPEEIINMDFKNFDFNGKKVGIGQVEVIDVSEVESKKEDIYKLLEEKLKNEGYDLIVFLITDIMKEGSEALVVGNKEMFEKAFNVKVEGNSVFLEGVMSRKKQVVPPLERAYNG” is “not failed”; for “MSAAIAALAASYGSGSGSESDSDSEGSRCPLPAADSLMHLTKSPSAKPSLTVAVDSAPEVAVKEDLETGVHLDPAVKEVQYNPTYETMFAPELLPSHXSXPFEQWHHPRELPTGTRVPAPVTXALFPQERGSVICTCLLSGYALDPSLDNHQVSAKYIGSVEDAEKNQGLTVFETGQKKTEKRKKFKENDASNIDGFLGPWAKYVDEKDVAKPSEEEQKELDEITAKRQKKGKQEEEKPGEEKTILHVKEMYDYQGRSYLHIPQDVGVNLRSSVPPEKCYLPKKQIHVWSGHTKGVSAVRLFPLSGHLLLSCSMDCKIKLWEVYGDRRCLRTFIGHSKAVRDICFNTAGTQFLSAAYDRYLKLWDTETGQCISRFTNRKVPYCVKFNPDEDKQNLFVAGMSDKKIVQWDIRSGEIVQEYDRHLGAVNTIVFVDENRRFVSTSDDKSLRVWEWDIPVDFKYIAEPSMHSMPAVTLSPNGKWLACQSMDNQILIFGAQNRFRLNKKKIFKGHMVAGYACQVDFSPDMSYVISGDGNGKLNIWDWKTTKLYSRFKAHDKVCIGAVWHPHETSKVITCGWDGLIKLWD” it is “failed”.

As for “MSAEAADREAVSGSRPCTPPQTSWFEFLLNPSLLEQHLHSPHPDPSPVQLIFQFLEQASKPSVNEQNQVQPPVDNRRNRTLKLMALKVAAHLRWDLNMLEKGLTIPVLNMLLNELLCVSHVPPGVKHVDLDLSSLPPTTAMAVVFYNRWAIRTIVLSSFPEKQTKPGPHQLNMMNMLQQEKEHTENILSVLREQATDSIMVLEGALSIKKDFYIHL”, the protein production result was “not failed”. For “MSAGEHAGGVFLGGIAIDEPTREAARAMVDRDREEFLPADPVAWVDDQLSELDDAFLRPAVNVRAVRLGPLRDVAAVCAAHDAILEVNAHCRQDELCDAGAGETLLRDTSRLCEQVRAASDEGAAVSVKVRAGVQGVHLPVLAQAIERAGAAAIHVDAMDSRRVVRDVADATALFVVANNGVRTRDDVFEYLSYGADAVSVGRPSRDPERVRAVYAAVKEWLL”, the protein production result is on record as “failed”. Turning to “MSAHLLIILPLIIPFVAAVAALLFARWPTVQKGINIVSMGGILAASLGLLSRITEQGIQVTTIGDWPVPFGIVFVVDHLSVVMLIVSAIIGLAVAVYAVPDVDDARVRFGFYPFFNLLMIGINGAFLTGDLFNLYVWFEVMLISSFVLIVLGNTDEQLAGAVKYVVINLVSSLLFLSGVGLVYGMTGTLNMAELSLALSEVGQPGLVTVVAMLFLISFGIKAALFPLFFWLPASYHTPPASVSAFFAGLLTKVGVYALFRVFTLLFTQDVGYTHTLLLWGAGLTMVTGVLGAAVQNDFRRVLSFHIVSQIGYMIMGLALYTPLAILGGVFYIVHHIIVKANLFLVSGVAKRLRGSFSLKSLDGLYAYHPWLAALFIIPAFSLAGFPPLSGFWAKLILTIAGIETGAYWIVTVAVAVGLFTMFSMTKIWVKAFLPGGGGDLADAVSSMGLGTRVMYVPIAGLAALTIMISVFAGPVYDLAERSADELYNSSEYVEAVLNHEKSAADAGPRPGVDGRTGRVHAR”, the protein production result was “failed”. With “MSAICQVTGRQPGYGKSVSHSHRRTSRRWNPNVQRRKFYLPSEGRTITLNVSTKGLKVIDRDGIESVVAKIRARGEKILEHHHHHH” the entry was “failed”; with “MSAITRYLAMLRLFGMLLCAAAIPSVATATVPVTVAVAASDVEEEAVEASAVGAEAEAARDAGYESAEVPALARRVTDLTATLDAAERARLEASLAALEARKGAQVAILMVPSTYPDSIEAYATRVFEAWKLGRKGIDDGVLVLVAKDDRRMRIEVGYGLEGTITDIDAGRIIREYMTPAFRQQDYAGGLEAAAQRLVRLIDGEALPPPPRDPLEPGAVRQTLAIAFLLGALGGVALLVRPRAWYWTLGAVVALAAALALGRHWPAGAMVALAEMVAVLGVGFGALLKYSRGARWFFAILVLYALGLFWAYRRYGLPVLHYGLAVPLSLGLSLLMLAGAWQGLRRGRRWAYLPGLLGLLLTLALECLLLLVDDPLNSIEALIILPAACLPLLIGCNFSAGGSGGGRRRGGDYASSSGSSSSSSSSSSSDSFSGGGGSSGGGGASGSWLEHHHHHH”, “failed”; with “MSAKRVFEKFDKNKDGKLSLDEFREVALAFSPYFTQEDIVKFFEEIDVDGNGELNADEFTSCIEKML”, “not failed”. The entry for “MSALIDTWFLGCRAAATAVLYVLFAVVAGGAVSAARAATVAASAPAPVTVGSGKKAVRQGISLELLVKPTHAEDGFSAAVVEGAYADVSLKMTDAATGHPVTVMQPRVWIDLRKGTGDFREKQMACSDKVRTYLQGTLSFRPDIDLNSYFVLTLNNDASISVIDPIIGVAGYSQLYAMILLKRPGEDWVFSFDGKRLYVTMPKAGEVAEIDTDSLAVVRNIPAGAMPVRMAFQPDSRYLWVGNDSSDPARSGVTVIDPFSGTQAAFIQTGAGHHEIAFADDSRYAFVTNQQSGTLTIIDIQSLAPVKTLRLGDGPVSVAYSALSKCAHVVCEGDGNLLVVDGLSHEIISRKTFEPGFREVRFAPGDRWYFTVNGKNGQILVFDAAGNELLHSTVVAGRPEHVSFSTEFAYIRSLGTADVTLIPLAALGKAAILTPLVVSGGSRPPADSPLLPPTADPIVVTPEGNSVLIASPSDGAVVYYMEGMGVPMGSFKTYGRLPRAVNVINRQLRQNVPGVFSSRVKIPLAGTYDVAVLLDSPRIVQCFEFSADANPALQRLKTERPVMVEFVGSALRVEAGRESVVRFRVTDPVTHEPVADLRDLIVVTSLVPTGAWRQQLVSRPVGNGIYEVTFTARKVGIYSFNFAIPSLKVKLYQLAGMMIHAVETPAEAGSDVPAGQKKD” is “failed”. With “MSALRVTSPSVEYVQRPLGLDAAHPRLSWPMASAAPGRRQSAYQVRVASSAAGLSHPDVWDSGKVVSDDSVLVPYAGPPLKPRTRYFWSVRVWDADGGASEWSAPSWWETGLMGASQWSAKWISAPAPLTEAPSLEGSSWIWFPEGEPANSAPAATRWFRRTVDLPDDITGATLAISADNVYAVSVDGAEVARTDLEADNEGWRRPAVIDVLDHVHSGNNTLAVSASNASVGPAGWICVLVLTTASGEKKIFSDASWKSTDHEPADGWREPDFDDSGWPAAKVAAAWGAGPWGRVAPVASAANQLRHEFRLPHKKVSRARLYATALGLYEAHLNGRRVGRDQLAPGWTDYRKRVQYQTYDVTSSVRPGANALAAYVAPGWYAGNVGMFGPHQYGERPALLAQLEVEYADGTSERITSGPDWRAASGPIVSADLLSGETYDARKETAGWTSPGFDDRAWLAVRGADNDVPEQIVAQVDGPVRIAKELPARKVTEPKPGVFVLDLGQNMVGSVRLRVSGDAGTTVRLRHAEVLNPDGTIYTANLRSAAATDTYTLKGQGEETYEPRFTFHGFRYVEVTGFPGKPSTTSVTGRVMHTSAPFTFEFETNVPMLNKLHSNITWGQRGNFLSVPTDTPARDERLGWTGDINVFAPTAAYTMESARFLTKWLVDLRDAQTSDGAFTDVAPAVGNLGNGVAGWGDAGVTVPWALYQAYGDRQVLADALPSVHAWLRYLEKHSDGLLRPADGYGDWLNVSDETPKDVIATAYFAHSADLAARMATELGKDAAPYTDLFTRIRKAFQTAYVASDGKVKGDTQSAYVLTLSMNLVPDALRKAAADRLVALIEAKDWHLSTGFLGTPRLLPVLTDTGHTDVAYRLLHQRTFPSWGYPIDKGSTTMWERWDSIQPDGGFQTPEMNSFNHYAYGSVGEWMYANIAGIAPGRAGYRQVVIRPRPGGEVTSARATFASLHGPVSTRWQQRSGGFVLTCSVPPNTTAEVWIPADHPDRVQHTHGTFVRAEDGCAVFEVGSGSHRFTV” the entry was “failed”; with “MSALSRWLLIPPVSARLSERYQGYRRHGASPFSAALGCLWTILAWIVFPLEHPRWQRIRDGHKALYPHINAARPRPLDPARYLIQTLWLVMISSTKERHEPRWRSFARLKDVRGRYHQWMDTLPERVRQKTTHLEKEKELGHLSNGARRFILGVIVTFSLILALICITQPFNPLSQFIFLLLLWGVALLVRRMPGRFSALMLIVLSLTVSCRYIWWRYTSTLNWDDPVSLVCGLILLFAETYAWIVLVLGYFQVVWPLNRQPVPLPKEMSQWPTVDIFVPTYNEDLNVVKNTIYASLGIDWPKDKLNIWILDDGGRESFRQFARHVGVHYIARATHEHAKAGNINNALKHAKGEFVAIFDCDHVPTRSFLQMTMGWFLKEKQLAMMQTPHHFFSPDPFERNLGRFRKTPNEGTLFYGLVQDGNDMWDATFFCGSCAVIRRKPLDEIGGIAVETVTEDAHTSLRLHRRGYTSAYMRIPQSAGLATESLSAHIGQRIRWARGMVQIFRLDNPLFGKGLKLAQRLCYLNAMFHFLSGIPRLIFLTAPLAFLLLHAYIIYAPALMIALFVIPHMVHASLTNSKIQGKYRHSFWSEIYETVLAWYIAPPTLVALINPHKGKFNVTAKGGLVEEKYVDWVISRPYIFLVLLNLLGVAAGVWRYYYGPENETLTVIVSLVWVFYNLVILGGAVAVSVESKQVRRAHRVEIAMPGAIAREDGHLFSCTVHDFSDGGLGIKINGQAQVLEGQKVNLLLKRGQQEYVFPTQVVRVTGNEVGLQLMPLTTKQHIDFVQCTFARADTWALWQDSFPEDKPLESLLDILKLGFRGYRHLAEFAPPSVKVIFRSLTALIAWIVSFIPRRPERQAAIQPSDRVMAQAQQ”, “failed”; with “MSANVQEAANAAIEPASFVKVPMPEPPSSLQQLINDWQLIKHREGGYFKETDRSPYTMEVEKPVNGGSGNTEMVTRNQSTLIYYLLTPDSPIGKFHKNINRIIHILQRGKGQYVLVYPDGQVKSFKVGFDYKNGEVSQWVVPGGVFKASFLLPNEEFDNGFLISEVVVPGFDFEDHTFLKGEDELKHLVGPEKAAELAFLA”, “not failed”.

Consider “MSAQSSVQPELAVRQWRTPLELGFLGVVWGCSFLFMRVAAPKFGTVVLVEIRLALGALVLLPFLWLARERFPLHRWPMLAAIGVLNSALPFLLFAWGAQHAPAAVGAICNAMTVLFTALIAFLFFGERIGTRRALALLVGFIGVLVLATGKSAGLSVGPAALAGATASLLYGIGYNLVKRHMGDLPPAASAASTLGCSALLLAPLAWWQWPTTPVPAVAWACATALGVVCTGLAFLMYYRLIQRIGPARASTVTYLVPVFGALLAWSLLGEPLTWTMLVAAVLILGSVAFSQRAR”, for which the protein production result is recorded as “failed”.
